± gives the standard deviation of the averaged measurements.
Experiments:
MCF7 = experiment: percentage of EdU-negative (G0-arrested) nuclei per well, 72 h; higher = more G0 arrest; settings: reference: sequence is the full UniProt precursor, the tested protein was the secreted form or ectodomain
hTERT-HMEC = experiment: as above; settings: reference: sequence is the full UniProt precursor, the tested protein was the secreted form or ectodomain
[1] = protein concentration 0.01975 µM
[2] = protein concentration 0.1975 µM
[3] = protein concentration 0.0079375 µM
[4] = protein concentration 0.00885714 µM
[5] = protein concentration 0.0357143 µM
[6] = protein concentration 0.079375 µM
[7] = protein concentration 0.0885714 µM
[8] = protein concentration 0.357143 µM
[9] = protein concentration 0.0225 µM
[10] = protein concentration 0.0257143 µM
[11] = protein concentration 0.257143 µM
[12] = protein concentration 0.00825 µM
[13] = protein concentration 0.0825 µM
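Further: secreted proteins added to cultured cells, EdU pulse at the end, nuclei found by Hoechst imaging, EdU status from nuclear versus surrounding ring intensity ratio, PBS as neutral control.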

With “MKPPFLLALVVCSVVSTNLKMVSKRNSVDGCIDWSVDLKTYMALAGEPVRVKCALFYSYIRTNYSTAQSTGLRLMWYKNKGDLEEPIIFSEVRMSKEEDSIWFHSAEAQDSGFYTCVLRNSTYCMKVSMSLTVAENESGLCYNSRIRYLEKSEVTKRKEISCPDMDDFKKSDQEPDVVWYKECKPKMWRSIIIQKGNALLIQEVQEEDGGNYTCELKYEGKLVRRTTELKVTALLTDKPPKPLFPMENQPSVIDVQLGKPLNIPCKAFFGFSGESGPMIYWMKGEKFIEELAGHIREGEIRLLKEHLGEKEVELALIFDSVVEADLANYTCHVENRNGRKHASVLLRKKDLIYKIELAGGLGAIFLLLVLLVVIYKCYNIELMLFYRQHFGADETNDDNKEYDAYLSYTKVDQDTLDCDNPEEEQFALEVLPDVLEKHYGYKLFIPERDLIPSGTYMEDLTRYVEQSRRLIIVLTPDYILRRGWSIFELESRLHNMLVSGEIKVILIECTELKGKVNCQEVESLKRSIKLLSLIKWKGSKSSKLNSKFWKHLVYEMPIKKKEMLPRCHVLDSAEQGLFGELQPIPSIAMTSTSATLVSSQADLPEFHPSDSMQIRHCCRGYKHEIPATTLPVPSLGNHHTYCNLPLTLLNGQLPLNNTLKDTQEFHRNSSLLPLSSKELSFTSDIW [Q9NP60]” the “percentage of EdU-negative” value (MCF7; [1]) was 24.9 ± 2.6%, the “percentage of EdU-negative” value (MCF7; [2]) was 26.8 ± 1.9% and the “percentage of EdU-negative” value (hTERT-HMEC; [1]) was 4.91 ± 0.99%. For the same sequence, the “percentage of EdU-negative” value (hTERT-HMEC; [2]) was 8.95 ± 0.26%.
“MKPPRPVRTCSKVLVLLSLLAIHQTTTAEKNGIDIYSLTVDSRVSSRFAHTVVTSRVVNRANTVQEATFQMELPKKAFITNFSMIIDGMTYPGIIKEKAEAQAQYSAAVAKGKSAGLVKATGRNMEQFQVSVSVAPNAKITFELVYEELLKRRLGVYELLLKVRPQQLVKHLQMDIHIFEPQGISFLETESTFMTNQLVDALTTWQNKTKAHIRFKPTLSQQQKSPEQQETVLDGNLIIRYDVDRAISGGSIQIENGYFVHYFAPEGLTTMPKNVVFVIDKSGSMSGRKIQQTREALIKILDDLSPRDQFNLIVFSTEATQWRPSLVPASAENVNKARSFAAGIQALGGTNINDAMLMAVQLLDSSNQEERLPEGSVSLIILLTDGDPTVGETNPRSIQNNVREAVSGRYSLFCLGFGFDVSYAFLEKLALDNGGLARRIHEDSDSALQLQDFYQEVANPLLTAVTFEYPSNAVEEVTQNNFRLLFKGSEMVVAGKLQDRGPDVLTATVSGKLPTQNITFQTESSVAEQEAEFQSPKYIFHNFMERLWAYLTIQQLLEQTVSASDADQQALRNQALNLSLAYSFVTPLTSMVVTKPDDQEQSQVAEKPMEGESRNRNVHSGSTFFKYYLQGAKIPKPEASFSPRRGWNRQAGAAGSRMNFRPGVLSSRQLGLPGPPDVPDHAAYHPFRRLAILPASAPPATSNPDPAVSRVMNMKIEETTMTTQTPAPIQAPSAILPLPGQSVERLCVDPRHRQGPVNLLSDPEQGVEVTGQYEREKAGFSWIEVTFKNPLVWVHASPEHVVVTRNRRSSAYKWKETLFSVMPGLKMTMDKTGLLLLSDPDKVTIGLLFWDGRGEGLRLLLRDTDRFSSHVGGTLGQFYQEVLWGSPAASDDGRRTLRVQGNDHSATRERRLDYQEGPPGVEISCWSVEL” was tested, and the “percentage of EdU-negative” value (MCF7; [3]) was 26.1 ± 0.6%, the “percentage of EdU-negative” value (MCF7; [4]) was 24.7 ± 1.9% and the “percentage of EdU-negative” value (MCF7; [5]) was 25.598 ± 0.0074%. The “percentage of EdU-negative” value (MCF7; [6]) was 27.8 ± 0.46%, the “percentage of EdU-negative” value (MCF7; [7]) was 22.7 ± 1.4% and the “percentage of EdU-negative” value (MCF7; [8]) was 24.7 ± 1.2%. For the same sequence, the “percentage of EdU-negative” value (hTERT-HMEC; [3]) was 4.26 ± 0.31%, the “percentage of EdU-negative” value (hTERT-HMEC; [4]) was 5.26 ± 0.59% and the “percentage of EdU-negative” value (hTERT-HMEC; [5]) was 4.65 ± 0.14%. The “percentage of EdU-negative” value (hTERT-HMEC; [6]) was 6.25 ± 0.86%, the “percentage of EdU-negative” value (hTERT-HMEC; [7]) was 5.26 ± 0.17% and the “percentage of EdU-negative” value (hTERT-HMEC; [8]) was 5.86 ± 0.71%.
With “MKPVLPLQFLVVFCLALQLVPGSPKQRVLKYILEPPPCISAPENCTHLCTMQEDCEKGFQCCSSFCGIVCSSETFQKRNRIKHKGSEVIMPAN [Q8IUB5]” the “percentage of EdU-negative” value (MCF7; [9]) was 25.88 ± 0.11%, the “percentage of EdU-negative” value (MCF7; protein concentration 0.225 µM) was 23.6 ± 1% and the “percentage of EdU-negative” value (hTERT-HMEC; [9]) was 4.99 ± 0.22%. For the same sequence, the “percentage of EdU-negative” value (hTERT-HMEC; protein concentration 0.225 µM) was 5.21 ± 0.23%.
“MKPWILLLVMFISGVVMLLPVLGSFWNKDPFLDMIRETEQCWVQPPYKYCEKRCTKIMTCVRPNHTCCWTYCGNICLDNEEPLKSMLNP [Q8NEX5]” was tested, and the “percentage of EdU-negative” value (MCF7; [10]) was 26 ± 0.26%, the “percentage of EdU-negative” value (MCF7; [11]) was 26.31 ± 0.064% and the “percentage of EdU-negative” value (hTERT-HMEC; [10]) was 5.54 ± 0.81%. The “percentage of EdU-negative” value (hTERT-HMEC; [11]) was 5.1 ± 0.81%.
With “MKQKMMARLLRTSFALLFLGLFGVLGAATISCRNEEGKAVDWFTFYKLPKRQNKESGETGLEYLYLDSTTRSWRKSEQLMNDTKSVLGRTLQQLYEAYASKSNNTAYLIYNDGVPKPVNYSRKYGHTKGLLLWNRVQGFWLIHSIPQFPPIPEEGYDYPPTGRRNGQSGICITFKYNQYEAIDSQLLVCNPNVYSCSIPATFHQELIHMPQLCTRASSSEIPGRLLTTLQSAQGQKFLHFAKSDSFLDDIFAAWMAQRLKTHLLTETWQRKRQELPSNCSLPYHVYNIKAIKLSRHSYFSSYQDHAKWCISQKGTKNRWTCIGDLNRSPHQAFRSGGFICTQNWQIYQAFQGLVLYYESCK [Q8WZ79]” the “percentage of EdU-negative” value (MCF7; [12]) was 28.9 ± 1.8%, the “percentage of EdU-negative” value (MCF7; [13]) was 32.3 ± 0.53% and the “percentage of EdU-negative” value (hTERT-HMEC; [12]) was 5.48 ± 0.48%. The “percentage of EdU-negative” value (hTERT-HMEC; [13]) was 15.5 ± 1.6%.
In the case of “MKRLVCVLLVCSSAVAQLHKDPTLDHHWHLWKKTYGKQYKEKNEEAVRRLIWEKNLKFVMLHNLEHSMGMHSYDLGMNHLGDMTSEEVMSLMSSLRVPSQWQRNITYKSNPNRILPDSVDWREKGCVTEVKYQGSCGACWAFSAVGALEAQLKLKTGKLVSLSAQNLVDCSTEKYGNKGCNGGFMTTAFQYIIDNKGIDSDASYPYKAMDQKCQYDSKYRAATCSKYTELPYGREDVLKEAVANKGPVSVGVDARHPSFFLYRSGVYYEPSCTQNVNHGVLVVGYGDLNGKEYWLVKNSWGHNFGEEGYIRMARNKGNHCGIASFPSYPEI”, the “percentage of EdU-negative” value (MCF7; [9]) is reported as 25.8 ± 0.69%, the “percentage of EdU-negative” value (MCF7; protein concentration 0.225 µM) is reported as 28.92 ± 0.25% and the “percentage of EdU-negative” value (hTERT-HMEC; [9]) is reported as 4.72 ± 0.47%. The “percentage of EdU-negative” value (hTERT-HMEC; protein concentration 0.225 µM) was 9.97 ± 2.1%.

— the supplement of paper PMC11316812
